Experimental findings from patent US7309594 are described below.

The test system of this data set is Protein Kinase Bα/AKT1 catalytic domain (SEQ ID NO:3, tag removed) before PDK1 treatment.
Sequence of Protein Kinase Bα/AKT1 catalytic domain (SEQ ID NO:3, tag removed) before PDK1 treatment (chain, as listed by the source): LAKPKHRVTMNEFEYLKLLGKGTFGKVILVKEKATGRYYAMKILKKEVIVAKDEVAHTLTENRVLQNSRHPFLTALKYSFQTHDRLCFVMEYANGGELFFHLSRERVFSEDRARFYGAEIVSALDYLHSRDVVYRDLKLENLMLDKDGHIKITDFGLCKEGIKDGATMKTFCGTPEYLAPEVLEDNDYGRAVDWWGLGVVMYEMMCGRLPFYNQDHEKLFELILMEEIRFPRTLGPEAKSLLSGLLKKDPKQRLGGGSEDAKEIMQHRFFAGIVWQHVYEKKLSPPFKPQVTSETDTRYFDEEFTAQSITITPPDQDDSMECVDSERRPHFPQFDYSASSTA

In the case of PDK1 kinase, the “phosphorylation of AKT1 (mass spectrometry)” value was “Following 120 minute incubation with PDK1, AKT1 was converted into a mixture of mono and double phosphorylated proteins”.
